In the Immune Epitope Database (IEDB):

Experiments:
HLA-A*03:01 [1] = assay: IEDB peptide-MHC binding, purified MHC/competitive/fluorescence; ≥ and ≤ were set here for values at or beyond the usual limits of such assays
HLA-A*02:01 [2] = assay: as above; conditions: source organism: Zaire ebolavirus
HLA-A*11:01 [3] = assay: as above; conditions: source organism: Zaire ebolavirus
HLA-A*01:01 = assay: IEDB peptide-MHC binding, purified MHC/direct/fluorescence; filed as Kd, often an IC50 or EC50 that approximates it; ≥ and ≤ were set here for values at or beyond the usual limits of such assays
HLA-A*24:02 = assay: as above
HLA-B*07:02 = assay: as above
HLA-A*69:01 = assay: as above
HLA-A*03:01 [4] = assay: as above
HLA-B*15:01 = assay: as above
HLA-A*02:01 [5] = assay: as above
HLA-B*18:01 = assay: as above
HLA-B*27:05 = assay: as above
HLA-B*46:01 = assay: as above
HLA-B*58:01 [6] = assay: as above
HLA-A*11:01 [7] = assay: as above
HLA-B*40:01 = assay: as above
HLA-B*58:01 [8] = assay: IEDB peptide-MHC binding, purified MHC/competitive/radioactivity; filed as Kd, often an IC50 or EC50 that approximates it; ≥ and ≤ were set here for values at or beyond the usual limits of such assays
HLA-B*57:01 = assay: as above
HLA-B*08:02 = assay: IEDB peptide-MHC binding, purified MHC/direct/fluorescence; filed as Kd, often an IC50 or EC50 that approximates it; ≥ and ≤ were set here for values at or beyond the usual limits of such assays; conditions: source organism: Vibrio parahaemolyticus AQ3810
HLA-A*26:01 = assay: as above
HLA-A*31:01 = assay: as above
HLA-B*44:02 = assay: as above
HLA-B*08:01 = assay: as above; conditions: source organism: Influenza A virus (A/chicken/Hunan/fg/2004(H5N1))
[9] = source organism: Zaire ebolavirus
[10] = source organism: Escherichia coli O157:H7
[11] = source organism: Dengue virus 1 Brazil/97-11/1997
[12] = source organism: Yersinia pestis
[13] = source organism: Dengue virus 2 Jamaica/1409/1983
[14] = source organism: Dengue virus 4 Philippines/H241/1956
[15] = source organism: Influenza A virus (A/chicken/Hunan/fg/2004(H5N1))

Sequence: KILTAGLSV
- IC50 (HLA-A*03:01 [1]; [9]): 36.3 µM
- IC50 (HLA-A*02:01 [2]): 2.56 µM
- IC50 (HLA-A*11:01 [3]): ≥ 159 µM

Sequence: QMRVRYYGL
- Kd (HLA-A*01:01; [10]): ≥ 20 µM
- Kd (HLA-A*24:02; [10]): ≥ 20 µM
- Kd (HLA-B*07:02; [10]): ≥ 20 µM
- Kd (HLA-A*69:01; [10]): ≥ 20 µM
- Kd (HLA-A*03:01 [4]; [10]): ≥ 20 µM
- Kd (HLA-B*15:01; [10]): ≥ 20 µM
- Kd (HLA-A*02:01 [5]; [10]): ≥ 20 µM
- Kd (HLA-B*18:01; [10]): ≥ 20 µM
- Kd (HLA-B*27:05; [10]): ≥ 20 µM
- Kd (HLA-B*46:01; [10]): ≥ 20 µM
- Kd (HLA-B*58:01 [6]; [10]): ≥ 20 µM
- Kd (HLA-A*11:01 [7]; [10]): ≥ 20 µM
- Kd (HLA-B*40:01; [10]): ≥ 20 µM

Sequence: CTSQILLMRT
- Kd (HLA-B*58:01 [8]; [11]): 17.1 µM
- Kd (HLA-B*57:01; [11]): 2.41 µM

Sequence: FLRKHNEGL
- Kd (HLA-B*08:02): 1.75 µM

Sequence: RVFNGDDVK
- Kd (HLA-A*01:01; [12]): ≥ 20 µM
- Kd (HLA-A*24:02; [12]): ≥ 20 µM
- Kd (HLA-A*26:01; source organism: Yersinia pestis CA88-4125): ≥ 20 µM
- Kd (HLA-B*07:02; [12]): ≥ 20 µM
- Kd (HLA-A*31:01; [12]): 4.2 µM
- Kd (HLA-A*69:01; [12]): ≥ 20 µM
- Kd (HLA-A*03:01 [4]; [12]): 1.39 µM
- Kd (HLA-B*15:01; [12]): ≥ 20 µM
- Kd (HLA-A*02:01 [5]; [12]): ≥ 20 µM
- Kd (HLA-B*18:01; [12]): ≥ 20 µM
- Kd (HLA-B*27:05; [12]): ≥ 20 µM
- Kd (HLA-B*46:01; [12]): ≥ 20 µM
- Kd (HLA-B*58:01 [6]; [12]): ≥ 20 µM
- Kd (HLA-A*11:01 [7]; [12]): 0.251 µM
- Kd (HLA-B*40:01; [12]): ≥ 20 µM
- Kd (HLA-B*44:02; [12]): ≥ 20 µM

Sequence: KASFIEVKSC
- Kd (HLA-B*58:01 [8]; [13]): 0.37 µM
- Kd (HLA-B*57:01; [13]): 0.109 µM

Sequence: ISNSVAQAR
- IC50 (HLA-A*03:01 [1]; [9]): ≥ 110 µM
- IC50 (HLA-A*11:01 [3]): 49.2 µM

Sequence: PLARTAKVK
- IC50 (HLA-A*03:01 [1]; [9]): 4.15 µM
- IC50 (HLA-A*11:01 [3]): 48.4 µM

Sequence: SASEAVNDSR
- Kd (HLA-B*58:01 [8]; [14]): 0.0401 µM
- Kd (HLA-B*57:01; [14]): 1.39 µM

Sequence: TSSQQKADWI
- Kd (HLA-B*58:01 [8]; [13]): 1.07 µM
- Kd (HLA-B*57:01; [13]): 2.59 µM

Sequence: DTVNRTHQY
- Kd (HLA-A*24:02; [15]): ≥ 20 µM
- Kd (HLA-A*26:01; [15]): 0.0055 µM
- Kd (HLA-B*07:02; [15]): ≥ 20 µM
- Kd (HLA-A*31:01; [15]): ≥ 20 µM
- Kd (HLA-A*69:01; [15]): ≥ 20 µM
- Kd (HLA-A*03:01 [4]; [15]): ≥ 20 µM
- Kd (HLA-B*15:01; [15]): ≥ 20 µM
- Kd (HLA-A*02:01 [5]; [15]): ≥ 20 µM
- Kd (HLA-B*08:01): ≥ 20 µM
- Kd (HLA-B*27:05; [15]): ≥ 20 µM
- Kd (HLA-B*58:01 [6]; [15]): ≥ 20 µM
- Kd (HLA-A*11:01 [7]; [15]): ≥ 20 µM
- Kd (HLA-B*40:01; [15]): ≥ 20 µM
- Kd (HLA-B*44:02; [15]): ≥ 20 µM

Sequence: RKAIDFLLR
- IC50 (HLA-A*03:01 [1]; source organism: Sudan ebolavirus): ≥ 212 µM
